In US20220152100A1, “METHODS FOR CONTROLLED ACTIVATION OR ELIMINATION OF THERAPEUTIC CELLS” (Bellicum Pharmaceuticals, Inc., priority 2014, published 2022):

Tested on: HEK293T/16 cells
Assay: SEAP-based surrogate killing assay of iCasp9 mutants
Type: cell-based, human
Conditions: 1 μg iCasp9 per million cells
Description: Early passage HEK293T/16 cells (ATCC, Manassas, Va.) were maintained in IMDM, GlutaMAX™ (Life Technologies, Carlsbad, Calif.) supplemented with 10% FBS, 100 U/mL penicillin, and 100 […] until transfection in a humidified, 37° C., 5% CO2/95% air atmosphere. Cells in logarithmic-phase growth were transiently transfected with 800 ng to 2 μg of expression plasmid encoding iCasp9 mutants and 500 ng of an expression plasmid encoding SRα promoter driven SEAP per million cells in 15-mL conical tubes. […] GeneJammer® Transfection Reagent at a ratio of 3 μl per ug of plasmid DNA was used to transiently transfect HEK293T/16 cells in the absence of antibiotics. 100 μl or 2 mL of the transfection mixture was added to each well in 96-well or 6-well plate, respectively.
Briefly, after 65° C. heat denaturation for 45 minutes to reduce background caused by endogenous (and serum-derived) alkaline phosphatases that are sensitive to heat, 5 μl of supernatants was added to 95 μl of PBS and added to 100 μl of substrate buffer, containing 1 μl of 100 mM 4-methylumbelliferyl phosphate (4-MUP; Sigma, St. Louis, Mo.) re-suspended in 2 M diethanolamine. Hydrolysis of 4-MUP by SEAP produces a fluorescent […] with excitation/emission (355/460 nm), which can be easily measured. Assays were performed in black opaque 96-well plates to minimize fluorescence leakage between wells. […] of the mixture was seeded onto each well of a 96-well plate. […] For the assay, 4-methylumbelliferyl phosphate substrate was hydrolyzed by SEAP to 4-methylumbelliferon, a metabolite that can be excited with 364 nm and detected with an emission filter of 448 nm. Since SEAP is used as a marker for cell viability, reduced SEAP reading corresponds with increased iCaspase-9 activities.

Row | Molecule | relative SEAP activity Units (basal, without AP1903)
1 | D330A-N405Q: chimeric modified Caspase-9 polypeptide, double mutant, SEQ ID NO: 28 (protein) GFGDVGALESLRGNADLAYILSMEPCGHCLIINNVNFCRESGLRTRTGSNIDCEKLRRRFSSLHFMVEVKGDLTAKKMVLALLELARQDHGALDCCVVVILSHGCQASHLQFPGAVYGTDGCPVSVEKIVNIFNGTSCPSLGGKPKLFFIQACGGEQKDHGFEVASTSPEDESPGSNPEPDATPFQEGLRTFDQLAAISSLPTPSDIFVSYSTFPGFVSWRDPKSGSWYVETLDDIFEQWAHSEDLQSLLLRVANAVSVKGIYKQMPGCFQFLRKKLFFKTS | 205772

Same assay, conditions: 2 μg iCasp9 per million cells

Row | Molecule | relative SEAP activity Units (basal, without AP1903)
2 | D330A-N405Q: chimeric modified Caspase-9 polypeptide, double mutant, SEQ ID NO: 28 (protein) GFGDVGALESLRGNADLAYILSMEPCGHCLIINNVNFCRESGLRTRTGSNIDCEKLRRRFSSLHFMVEVKGDLTAKKMVLALLELARQDHGALDCCVVVILSHGCQASHLQFPGAVYGTDGCPVSVEKIVNIFNGTSCPSLGGKPKLFFIQACGGEQKDHGFEVASTSPEDESPGSNPEPDATPFQEGLRTFDQLAAISSLPTPSDIFVSYSTFPGFVSWRDPKSGSWYVETLDDIFEQWAHSEDLQSLLLRVANAVSVKGIYKQMPGCFQFLRKKLFFKTS | 174366

Same assay, conditions: in words, versus wild type

Row | Molecule | effect on basal / catalytic activity
3 | D330A-N405Q: chimeric modified Caspase-9 polypeptide, double mutant, SEQ ID NO: 28 (protein) GFGDVGALESLRGNADLAYILSMEPCGHCLIINNVNFCRESGLRTRTGSNIDCEKLRRRFSSLHFMVEVKGDLTAKKMVLALLELARQDHGALDCCVVVILSHGCQASHLQFPGAVYGTDGCPVSVEKIVNIFNGTSCPSLGGKPKLFFIQACGGEQKDHGFEVASTSPEDESPGSNPEPDATPFQEGLRTFDQLAAISSLPTPSDIFVSYSTFPGFVSWRDPKSGSWYVETLDDIFEQWAHSEDLQSLLLRVANAVSVKGIYKQMPGCFQFLRKKLFFKTS | intermediate
4 | N405A: chimeric modified Caspase-9 polypeptide (protein, UniProt P55211 1-416, looked up, variant N405A, chimeric, fused to dimerization domain, chimeric modified Caspase-9 polypeptide) MDEADRRLLRRCRLRLVEELQVDQLWDALLSRELFRPHMIEDIQRAGSGSRRDQARQLIIDLETRGSQALPLFISCLEDTGQDMLASFLRTNRQAAKLSKPTLENLTPVVLRPEIRKPEVLRPETPRPVDIGSGGFGDVGALESLRGNADLAYILSMEPCGHCLIINNVNFCRESGLRTRTGSNIDCEKLRRRFSSLHFMVEVKGDLTAKKMVLALLELAQQDHGALDCCVVVILSHGCQASHLQFPGAVYGTDGCPVSVEKIVNIFNGTSCPSLGGKPKLFFIQACGGEQKDHGFEVASTSPEDESPGSNPEPDATPFQEGLRTFDQLDAISSLPTPSDIFVSYSTFPGFVSWRDPKSGSWYVETLDDIFEQWAHSEDLQSLLLRVANAVSVKGIYKQMPGCFAFLRKKLFFKTS | no effect
5 | N405F: chimeric modified Caspase-9 polypeptide (protein, UniProt P55211 1-416, looked up, variant N405F, chimeric, fused to dimerization domain, chimeric modified Caspase-9 polypeptide) MDEADRRLLRRCRLRLVEELQVDQLWDALLSRELFRPHMIEDIQRAGSGSRRDQARQLIIDLETRGSQALPLFISCLEDTGQDMLASFLRTNRQAAKLSKPTLENLTPVVLRPEIRKPEVLRPETPRPVDIGSGGFGDVGALESLRGNADLAYILSMEPCGHCLIINNVNFCRESGLRTRTGSNIDCEKLRRRFSSLHFMVEVKGDLTAKKMVLALLELAQQDHGALDCCVVVILSHGCQASHLQFPGAVYGTDGCPVSVEKIVNIFNGTSCPSLGGKPKLFFIQACGGEQKDHGFEVASTSPEDESPGSNPEPDATPFQEGLRTFDQLDAISSLPTPSDIFVSYSTFPGFVSWRDPKSGSWYVETLDDIFEQWAHSEDLQSLLLRVANAVSVKGIYKQMPGCFFFLRKKLFFKTS | lowered basal activity
6 | G402I: chimeric modified Caspase-9 polypeptide (protein, UniProt P55211 1-416, looked up, variant G402I, chimeric, fused to dimerization domain, chimeric modified Caspase-9 polypeptide) MDEADRRLLRRCRLRLVEELQVDQLWDALLSRELFRPHMIEDIQRAGSGSRRDQARQLIIDLETRGSQALPLFISCLEDTGQDMLASFLRTNRQAAKLSKPTLENLTPVVLRPEIRKPEVLRPETPRPVDIGSGGFGDVGALESLRGNADLAYILSMEPCGHCLIINNVNFCRESGLRTRTGSNIDCEKLRRRFSSLHFMVEVKGDLTAKKMVLALLELAQQDHGALDCCVVVILSHGCQASHLQFPGAVYGTDGCPVSVEKIVNIFNGTSCPSLGGKPKLFFIQACGGEQKDHGFEVASTSPEDESPGSNPEPDATPFQEGLRTFDQLDAISSLPTPSDIFVSYSTFPGFVSWRDPKSGSWYVETLDDIFEQWAHSEDLQSLLLRVANAVSVKGIYKQMPICFNFLRKKLFFKTS | catalytically inactive
7 | G402Y: chimeric modified Caspase-9 polypeptide (protein, UniProt P55211 1-416, looked up, variant G402Y, chimeric, fused to dimerization domain, chimeric modified Caspase-9 polypeptide) MDEADRRLLRRCRLRLVEELQVDQLWDALLSRELFRPHMIEDIQRAGSGSRRDQARQLIIDLETRGSQALPLFISCLEDTGQDMLASFLRTNRQAAKLSKPTLENLTPVVLRPEIRKPEVLRPETPRPVDIGSGGFGDVGALESLRGNADLAYILSMEPCGHCLIINNVNFCRESGLRTRTGSNIDCEKLRRRFSSLHFMVEVKGDLTAKKMVLALLELAQQDHGALDCCVVVILSHGCQASHLQFPGAVYGTDGCPVSVEKIVNIFNGTSCPSLGGKPKLFFIQACGGEQKDHGFEVASTSPEDESPGSNPEPDATPFQEGLRTFDQLDAISSLPTPSDIFVSYSTFPGFVSWRDPKSGSWYVETLDDIFEQWAHSEDLQSLLLRVANAVSVKGIYKQMPYCFNFLRKKLFFKTS | catalytically inactive
8 | C403P: chimeric modified Caspase-9 polypeptide (protein, UniProt P55211 1-416, looked up, variant C403P, chimeric, fused to dimerization domain, chimeric modified Caspase-9 polypeptide) MDEADRRLLRRCRLRLVEELQVDQLWDALLSRELFRPHMIEDIQRAGSGSRRDQARQLIIDLETRGSQALPLFISCLEDTGQDMLASFLRTNRQAAKLSKPTLENLTPVVLRPEIRKPEVLRPETPRPVDIGSGGFGDVGALESLRGNADLAYILSMEPCGHCLIINNVNFCRESGLRTRTGSNIDCEKLRRRFSSLHFMVEVKGDLTAKKMVLALLELAQQDHGALDCCVVVILSHGCQASHLQFPGAVYGTDGCPVSVEKIVNIFNGTSCPSLGGKPKLFFIQACGGEQKDHGFEVASTSPEDESPGSNPEPDATPFQEGLRTFDQLDAISSLPTPSDIFVSYSTFPGFVSWRDPKSGSWYVETLDDIFEQWAHSEDLQSLLLRVANAVSVKGIYKQMPGPFNFLRKKLFFKTS | catalytically inactive
9 | ^402GCFNF^406AAAAA: Caspase-9 with dimerization residues 402-406 replaced by AAAAA (protein, UniProt P55211 1-416, looked up, variant G402A C403A F404A N405A F406A) MDEADRRLLRRCRLRLVEELQVDQLWDALLSRELFRPHMIEDIQRAGSGSRRDQARQLIIDLETRGSQALPLFISCLEDTGQDMLASFLRTNRQAAKLSKPTLENLTPVVLRPEIRKPEVLRPETPRPVDIGSGGFGDVGALESLRGNADLAYILSMEPCGHCLIINNVNFCRESGLRTRTGSNIDCEKLRRRFSSLHFMVEVKGDLTAKKMVLALLELAQQDHGALDCCVVVILSHGCQASHLQFPGAVYGTDGCPVSVEKIVNIFNGTSCPSLGGKPKLFFIQACGGEQKDHGFEVASTSPEDESPGSNPEPDATPFQEGLRTFDQLDAISSLPTPSDIFVSYSTFPGFVSWRDPKSGSWYVETLDDIFEQWAHSEDLQSLLLRVANAVSVKGIYKQMPAAAAALRKKLFFKTS | catalytically inactive
10 | ^402GCFNF^406ISAQT (Casp-10): Caspase-9 with dimerization residues 402-406 replaced by those of Caspase-10 (protein, UniProt P55211 1-416, looked up, variant G402I C403S F404A N405Q F406T, Caspase-10 dimerization residues swapped in) MDEADRRLLRRCRLRLVEELQVDQLWDALLSRELFRPHMIEDIQRAGSGSRRDQARQLIIDLETRGSQALPLFISCLEDTGQDMLASFLRTNRQAAKLSKPTLENLTPVVLRPEIRKPEVLRPETPRPVDIGSGGFGDVGALESLRGNADLAYILSMEPCGHCLIINNVNFCRESGLRTRTGSNIDCEKLRRRFSSLHFMVEVKGDLTAKKMVLALLELAQQDHGALDCCVVVILSHGCQASHLQFPGAVYGTDGCPVSVEKIVNIFNGTSCPSLGGKPKLFFIQACGGEQKDHGFEVASTSPEDESPGSNPEPDATPFQEGLRTFDQLDAISSLPTPSDIFVSYSTFPGFVSWRDPKSGSWYVETLDDIFEQWAHSEDLQSLLLRVANAVSVKGIYKQMPISAQTLRKKLFFKTS | reduced basal activity but higher IC50
11 | D327G: chimeric modified Caspase-9 polypeptide (protein) VDGFGDVGALESLRGNADLAYILSMEPCGHCLIINNVNFCRESGLRTRTGSNIDCEKLRRRFSSLHFMVEVKGDLTAKKMVLALLELARQDHGALDCCVVVILSHGCQASHLQFPGAVYGTDGCPVSVEKIVNIFNGTSCPSLGGKPKLFFIQACGGEQKDHGFEVASTSPEDESPGSNPEPDATPFQEGLRTFGQLDAISSLPTPSDIFVSYSTFPGFVSWRDPKSGSWYVETLDDIFEQWAHSEDLQSLLLRVANAVSVKGIYKQMPGCFNFLRKKLFFKTSASRA | did not lower basal activity
12 | D327K: chimeric modified Caspase-9 polypeptide (protein) VDGFGDVGALESLRGNADLAYILSMEPCGHCLIINNVNFCRESGLRTRTGSNIDCEKLRRRFSSLHFMVEVKGDLTAKKMVLALLELARQDHGALDCCVVVILSHGCQASHLQFPGAVYGTDGCPVSVEKIVNIFNGTSCPSLGGKPKLFFIQACGGEQKDHGFEVASTSPEDESPGSNPEPDATPFQEGLRTFKQLDAISSLPTPSDIFVSYSTFPGFVSWRDPKSGSWYVETLDDIFEQWAHSEDLQSLLLRVANAVSVKGIYKQMPGCFNFLRKKLFFKTSASRA | did not lower basal activity
